The values below come from article doi:10.1101/638320, “Analyzing the weak dimerization of a cellulose binding module by sedimentation velocity experiments” (bioRxiv, 2019).

Data set [1] concerns the molecule itself. Nature of the data set: AUC; loading concentration 0.50 mg/mL (27.07 uM).
Data set [2] concerns the molecule itself. Put plainly: AUC; loading concentration 0.70 mg/mL (37.90 uM).
Data set [3] deals with the molecule itself. Put plainly: AUC; sedimentation velocity, absorbance at 280 nm, 50 000 rpm, 20 °C, PBS (137 mM NaCl, 2.7 mM KCl, 10 mM Na2HPO4, 1.8 mM KH2PO4, pH 7.35), 0.05 to 0.7 g/L; UltraScan III (2DSA, GA, GAMC, van Holde-Weischet; KD by discrete model genetic algorithm); dimer to monomers.

B1: CBM_(CipA), cellulose binding module of the cellulosome anchoring protein CipA (domain or fragment, Clostridium thermocellum)
chain: MGNLKVEFYNSNPSDTTNSINPQFKVTNTGSSAIDLSKLTLRYYYTVDGQKDQTFWCDHAAIIGSNGSYNGITSNVKGTFVKMSSSTNNADTYLEISFTGGTLEPGAHVQIQGRFAKNDWSNYTQSNDYSFKSASQFVEWDQVTAYLNGVLVWGKEPLE
notes: abstract: Clostridium thermocellum, introduction: Cellulomonas fimi; differs from PDB 1NBC by the polyHis tag and two amino acids at the beginning and the end; Calculated monomer mass 18469 Da; Gene codon optimised for E. coli, in a modified pET28a(+); also called CMB_(CipA); source: E. coli BL21 (DE3), purified (heating to 70 °C, IMAC on HisTrap, desalting); not shown: His6, C-terminal, kept
As to B1, the Kd was 93.9 µM in data set [1], 80.5 µM in data set [2] and roughly 87 µM in data set [3]. Further, the “stoichiometry N” value in data set [3] was found to be 2.

The term Kd denotes the concentration at which binding is half-saturated. A low value points to tighter binding. As a reminder, the stoichiometry N is the number of molecules, sites or subunits per partner or assembly.
